Experimental data: publication PMC6305311

B1: AaBGL1 (Thermomonospora amylolytica) (protein)
chain: MNLPADFLFGAATSAYQIEGAPAADGRLPSIWDDFCRVPGAIAGGDTGDVACDHYHRWREDVALMRRLGLDAYRFSVAWPRVVPRGTGEVNRPGLDFYDRLVDALLAAGIRPFVTLYHWDLPSALQERGGWPSRDTAAHFADYAAVVAARLGDRVTDWTTLNEPLCTAWIGHLEGRFAPGVRDLRQAVHASHHLLLAHGLGAAAIRANASAPPSIGLVNNLSPIQAASDRPEDVRAAIRADGHVNRWWLDPAHGRGYPADMIEVYGVEPPVRDGDLETIAAPVEYVGLNYYFRQIVADDPDGPAPYARQVPVPGAQTTAMGWEVHADGLAELLLRLSEDYTAPRIYVTESGSAWDDKVGADGSINDQDRIAYLEDHLAAVARAAEAGAPVQGYFVWSLLDNFEWADGLDKRFGLVHVDYATQQRTVKASGHRYAEIIRAHRGAP
B2: AaBGL2 (Thermomonospora amylolytica) (protein)
chain: MTAHETQAQIREPATAPFPQDFRWGAATSAYQIEGAVAEDGRGRSIWDTFCDTPGAVLGGDTAAEAVDHYHRYREDVALMAGLGLNAYRFSLSWPRIQPSGTGPADQRGLDFYRRLVDELLEAGIEPWITLYHWDLPQALEDKGGWPERDTALRFAEFAALAHGALGDRVSNWMTINEPWCAAYLGYASGEHAPGRREPAAALEAAHHLLLGHGLAVEAMRGQRSGARIGPAVNLYAVSPAADTPEDLDAARRIDGLQNRFFLDALLLGRYPDDLLEDLAPFGFADCVRDGDMRVVGVRNDLLGINYYTRHTVSGRPGDATQAVSSPFSTVSPWVGSEHVRFVGQGKPVTGMGWEVDPDGLLEVLARLHREYPAVPLYITENGAGYDDVLDADDAVRDDERIAYLDAHLRVCARAIDAGIPLRGYFTWSLMDNFEWAWGYSKRFGLVYVDYATQRRIPKASARWYARTIRRGGLPD

Substrate: O=[N+]([O-])c1ccc(O[C@@H]2O[C@H](CO)[C@@H](O)[C@H](O)[C@H]2O)cc1
Assay: purified protein
Conditions: 5 min, pNPG 0.5-5.0 mg/ml
[1] = optimal pH (6.0) and temperature
[2] = optimal pH 6.0 and temperature 50°C, pH 6.0, 50.0 °C

Protein | Km [1] | Vmax [1] | kcat [1] | Km [2] | Vmax [2] | kcat [2]
B1 | 3300 µM | 6.8 µmol/min/mg | 5.5 s⁻¹ | – | – | –
B2 | – | – | – | 730 µM | 1.9 µmol/min/mg | 1.7 s⁻¹
